Target: T1, Full-length His-PCAF fusion protein (UniProt Q92831 1-832)
T1 construct: PCAF, full length, cDNA cloned into pET-28a; source: E. coli, purified
Experiment: pull-down; GST or GST-SIRT7 on glutathione-Sepharose 4B beads incubated with 6xHis-tagged PCAF from E. coli at 4 C overnight; washed with TEN buffer (0.5% NP-40, 20 mM Tris pH 7.4, 0.1 mM EDTA, 300 mM NaCl); immunoblot
Settings: both partners purified

T1 sequence (Q92831 whole entry, the tested form may be a part): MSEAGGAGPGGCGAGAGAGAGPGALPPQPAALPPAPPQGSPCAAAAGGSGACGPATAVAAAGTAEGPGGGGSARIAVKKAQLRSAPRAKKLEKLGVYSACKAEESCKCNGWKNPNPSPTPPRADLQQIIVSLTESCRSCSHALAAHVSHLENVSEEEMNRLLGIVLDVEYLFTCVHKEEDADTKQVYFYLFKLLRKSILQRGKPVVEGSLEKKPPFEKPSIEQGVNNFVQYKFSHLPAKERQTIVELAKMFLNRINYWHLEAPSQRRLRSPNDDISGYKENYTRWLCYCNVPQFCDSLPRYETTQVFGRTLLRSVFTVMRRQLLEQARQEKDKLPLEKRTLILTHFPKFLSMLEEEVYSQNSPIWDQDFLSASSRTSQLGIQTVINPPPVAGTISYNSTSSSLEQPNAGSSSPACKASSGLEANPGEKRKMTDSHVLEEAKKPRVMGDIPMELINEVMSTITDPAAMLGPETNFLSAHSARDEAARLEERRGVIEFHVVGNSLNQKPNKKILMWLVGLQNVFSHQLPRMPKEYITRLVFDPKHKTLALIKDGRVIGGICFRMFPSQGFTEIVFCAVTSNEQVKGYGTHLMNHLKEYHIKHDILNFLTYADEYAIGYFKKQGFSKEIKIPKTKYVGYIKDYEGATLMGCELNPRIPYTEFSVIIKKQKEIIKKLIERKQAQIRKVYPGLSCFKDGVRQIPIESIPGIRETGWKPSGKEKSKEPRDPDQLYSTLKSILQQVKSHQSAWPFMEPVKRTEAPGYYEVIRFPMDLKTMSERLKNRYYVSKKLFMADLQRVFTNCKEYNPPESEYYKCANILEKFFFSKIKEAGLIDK

binding result: binds
B1: full-length GST-tagged SIRT7 (natural protein, UniProt Q9NRC8 1-400, looked up)
chain: MAAGGLSRSERKAAERVRRLREEQQRERLRQVSRILRKAAAERSAEEGRLLAESADLVTELQGRSRRREGLKRRQEEVCDDPEELRGKVRELASAVRNAKYLVVYTGAGISTAASIPDYRGPNGVWTLLQKGRSVSAADLSEAEPTLTHMSITRLHEQKLVQHVVSQNCDGLHLRSGLPRTAISELHGNMYIEVCTSCVPNREYVRVFDVTERTALHRHQTGRTCHKCGTQLRDTIVHFGERGTLGQPLNWEAATEAASRADTILCLGSSLKVLKKYPRLWCMTKPPSRRPKLYIVNLQWTPKDDWAALKLHGKCDDVMRLLMAELGLEIPAYSRWQDPIFSLATPLRAGEEGSHSRKSLCRSREEAPPGDRGAPLSSAPILGGWFGRGCTKRTKRKKVT
notes: SIRT7, full length, cDNA cloned into pGEX-4T1; also called GST-SIRT7; full-length (FL) SIRT7; source: E. coli, purified on glutathione-Sepharose 4B beads
